Source: US20240199762A1 (PHILOGEN S P A, published 2024)

Columns and labels:
[1] = target: T1, canine FAP (caFAP) extracellular domain (ECD) (domestic dog (Canis familiaris)); experiment: ELISA, 120 nM caFAP-ECD coated on Maxisorp plates
T1 construct: also called caFAP-ECD
T1 chain: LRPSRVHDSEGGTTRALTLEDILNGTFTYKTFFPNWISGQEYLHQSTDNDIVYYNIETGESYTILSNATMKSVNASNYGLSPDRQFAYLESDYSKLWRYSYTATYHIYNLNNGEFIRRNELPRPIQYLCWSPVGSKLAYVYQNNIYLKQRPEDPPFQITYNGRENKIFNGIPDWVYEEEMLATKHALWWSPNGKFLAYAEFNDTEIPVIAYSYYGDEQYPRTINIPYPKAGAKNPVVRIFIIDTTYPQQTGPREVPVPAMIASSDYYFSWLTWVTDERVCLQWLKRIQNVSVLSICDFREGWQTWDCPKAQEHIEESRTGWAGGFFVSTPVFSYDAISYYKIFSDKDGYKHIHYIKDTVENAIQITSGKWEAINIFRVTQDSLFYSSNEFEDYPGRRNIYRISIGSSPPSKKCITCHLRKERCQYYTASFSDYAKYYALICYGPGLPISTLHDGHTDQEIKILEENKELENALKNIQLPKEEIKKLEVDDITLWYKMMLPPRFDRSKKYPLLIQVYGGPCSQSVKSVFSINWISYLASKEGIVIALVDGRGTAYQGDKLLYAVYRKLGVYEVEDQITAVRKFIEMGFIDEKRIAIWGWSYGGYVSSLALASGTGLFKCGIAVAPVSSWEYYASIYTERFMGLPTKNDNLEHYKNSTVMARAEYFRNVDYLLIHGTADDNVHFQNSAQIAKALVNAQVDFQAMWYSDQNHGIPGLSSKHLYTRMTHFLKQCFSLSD
Procedure: Cross-reactivity of the anti-hFAP antibodies with caFAP-ECD was tested using ELISA. 120 nM of caFAP-ECD was coated on Maxisorp plates overnight at 4° C. […] Specifically, the C5 antibody was employed in IgG2a format, while all other antibodies, including the 7NP2 antibody, were in IgG1 format. The differences between the IgG2a and IgG1 formats are not expected to affect binding to FAP. After 3 washes with PBS, binding of the antibodies to caFAP-ECD was detected using an anti-human or anti-murine antibody HRP conjugate.

[2] = target: T2, human FAP-ECD (extracellular domain) recombinant fragment containing a C-terminal His6 tag (human, UniProt Q12884 26-760, randomly biotinylated with NHS ester-activated biotin (as used on the SA chip and Streptawell plates)); experiment: epitope ELISA on biotinylated human FAP on Streptawell plates
T2 construct: also called biotinylated human FAP-ECD; biotinylated human FAP
T2 sequence: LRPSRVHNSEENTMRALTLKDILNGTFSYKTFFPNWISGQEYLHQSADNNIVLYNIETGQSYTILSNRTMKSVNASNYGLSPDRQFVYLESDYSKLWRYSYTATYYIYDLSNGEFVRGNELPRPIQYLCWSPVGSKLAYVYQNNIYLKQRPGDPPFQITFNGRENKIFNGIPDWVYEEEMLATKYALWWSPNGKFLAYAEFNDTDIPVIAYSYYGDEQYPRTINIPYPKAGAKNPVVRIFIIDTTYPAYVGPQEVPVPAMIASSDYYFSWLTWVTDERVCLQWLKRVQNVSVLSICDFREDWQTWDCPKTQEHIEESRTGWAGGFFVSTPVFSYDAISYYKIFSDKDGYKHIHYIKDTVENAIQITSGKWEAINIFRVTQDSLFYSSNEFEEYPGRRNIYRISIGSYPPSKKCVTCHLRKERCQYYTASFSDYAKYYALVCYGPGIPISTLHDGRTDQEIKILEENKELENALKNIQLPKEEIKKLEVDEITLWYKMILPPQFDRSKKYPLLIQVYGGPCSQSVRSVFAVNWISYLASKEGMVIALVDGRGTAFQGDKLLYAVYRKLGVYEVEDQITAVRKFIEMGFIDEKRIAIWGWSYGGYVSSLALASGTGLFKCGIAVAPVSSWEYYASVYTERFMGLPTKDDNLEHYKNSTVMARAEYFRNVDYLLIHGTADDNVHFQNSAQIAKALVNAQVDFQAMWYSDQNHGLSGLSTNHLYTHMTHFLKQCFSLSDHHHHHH
Procedure: To evaluate binding, 100 nM of biotinylated human FAP were coated on Streptawell plates for 30 min at 37° C.
The C5 antibody in IgG2a format was incubated together with the 7NP2 antibody in IgG1 format, the F5 antibody in IgG1 format (WO2016/116399), the ESC11 antibody in IgG1 format (Fisher et al., (2012) Clin Cancer Res; 18(22)), or the (negative control) antibody KSF in IgG1 format for 1.5 h at room temperature at a concentration of 5 μg/mL in the antigen-coated wells. After 3 washes with PBS, binding of the antibodies to human FAP was detected using anti-human or anti-murine HRP conjugates (FIG. 7).

- binding result [1]: no binding (tested: 5 µg/mL)
- binding result [2]: no binding (tested: 5 µg/mL)
B1: anti-hen egg lysozyme antibody KSF in IgG1 format (antibody, V domains shown)
VH: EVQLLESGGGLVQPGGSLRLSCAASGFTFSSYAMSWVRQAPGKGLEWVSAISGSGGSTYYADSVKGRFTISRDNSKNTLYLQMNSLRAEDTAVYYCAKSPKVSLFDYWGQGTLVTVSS
VL: SSELTQDPAVSVALGQTVRITCQGDSLRSYYASWYQQKPGQAPVLVIYGKNNRPSGIPDRFSGSSSGNTASLTITGAQAEDEADYYCQSSPLNRLAVVFGGGTKLTVLG
notes: Negative control; It was conjugated to FITC in the immunofluorescence and ex vivo experiments; also called KSF IgG1; KSF(IgG1)
